The record followed here is PMC12713080.

Test [1] concerns the target copper (Cu pull-down beads). Briefly: copper pull-down, IB quantified. Conditions: HEK293T cell lysate; mean+/-SD, n = 3; parent: est. 1.9; read off a plot.
In test [2] the target is copper (Cu-charged NTA beads). Put plainly: NTA-copper bead pull-down of purified protein, IB quantified. Conditions: 0.5 h at 4 °C; washed with NETN buffer (20 mm Tris-HCl (PH 8.0), 300 mm NaCl, 0.5% NP-40, 1 mm EDTA) 5 times; mean+/-SD, n = 3; parent: est. 2.4; read off a plot.

Regarding HA‐TAK1 (from UniProt O43318) H154A, in test [1], the response came to 1. Consider “HA‐TAK1 (from UniProt O43318) H154A; M196A”, for which the response in test [1] came out at 0.95. The same measure, in the same setting: the same measure for HA‐TAK1 (from UniProt O43318) M196A: 0.8. For the substance TAK1-N H154A; M196A, the response in test [2] worked out at 0.4.
